Assay results as given in US12703739 (VANDERBILT UNIVERSITY, dated 2026).

Experiments:
Experiment in all cases: cell-based or functional assay
[1] = biological target: Gn of RVFV-MP-12 (Rift Valley Fever Virus strain MP-12)
[2] = biological target: Gn of RVFV-SA51 (Rift Valley Fever Virus strain SA51)
[3] = biological target: Gn of RVFV-ZH501 (Rift Valley Fever Virus strain ZH501)
[4] = biological target: Gc of RVFV-ZH501 (Rift Valley Fever Virus strain ZH501)
[5] = biological target: Gc of RVFV-SA51 (Rift Valley Fever Virus strain SA51)
[6] = biological target: Gc of RVFV-MP-12 (Rift Valley Fever Virus strain MP-12)

B1: RVFV-226 (antibody, V domains shown)
VH: EVQLVESGGGLVQPGRSLRLSCAASGFTFDDYAMHWVRQAPGKGLEWVSGISWNSGSIGYVDSVKGRFTISRDNAKNSLYLQMNSLRAEDTALYYCAKGLVGAIHDAFDIWGQGTMVTVSS
VL: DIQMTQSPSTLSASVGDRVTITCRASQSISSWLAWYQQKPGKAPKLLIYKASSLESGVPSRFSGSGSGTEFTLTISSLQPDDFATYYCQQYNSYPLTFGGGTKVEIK
B1 was tested, and the “IC50 (ng/ml), neutralization of RVFV-MP-12” value (“IC50 (ng/ml) … of RVFV-MP-12” for short) [1] was 7690 ng/mL, the “IC50 (ng/ml), neutralization of RVFV-SA51” value (shortened to “IC50 (ng/ml) … of RVFV-SA51”) [2] was 3330 ng/mL and the “Fold-Change ZH501/MP-12 (ratio of neutralization IC50s)” value [3] was 1.3 fold. For the same binder, the “IC50 (ng/ml), neutralization of RVFV-ZH501” value (shortened to “IC50 (ng/ml) … of RVFV-ZH501”) [3] was 10000 ng/mL.

B2: RVFV-250 (antibody, V domains shown)
VH: QVQLQESGPGLAKPSETLSLTCTVSGGSISSYFWSWIRQPAGKGLEWIGRIHTTGSTNYNPSLKNRVIMSVDTSKNQFSLNLSSVTAADTAVYYCAREGTAFDIWGQGTMVTVSS
VL: SYELTQSPSVSVSPGQTASIPCSGDKLGDKYACWYQQKPGQSPVLVIYQDTKRPSGIPERFSGSNSGNTATLTISETQAMDEADYYCQAWDSSTPWVFGGGTKLTVL
In the case of B2, the “Fold-Change ZH501/MP-12 (ratio of neutralization IC50s)” value [4] is reported as 2.4 fold, the “IC50 (ng/ml) … of RVFV-ZH501” value [4] is reported as 120 ng/mL and the “IC50 (ng/ml) … of RVFV-SA51” value [5] is reported as 120 ng/mL. For the same binder, the “IC50 (ng/ml) … of RVFV-MP-12” value [6] was 51 ng/mL.

B3: RVFV-405 (antibody, V domains shown)
VH: EVQLVESGGGLVQPGGSLRLSCAASGFTFSSFEMNWVRQAPGKGLEWVSYISRSGTTKHYADSVKGRFAISRDDAKNSLYLQMNSLRAEDTAVYYCARGGARVLQAPLDYWGQGTLVTVSS
VL: SYELTQPPSVSVAPGETARITCGGTNIGNKSVRWYQQKPGQAPVLVIYYDNDRPSGIPERFSGSNSGNTATLTISRVEAGDEADYYCQVWDNSSDHAVFGGGTKLTVL
With B3 the “IC50 (ng/ml) … of RVFV-MP-12” value [1] was 30000 ng/mL, the “IC50 (ng/ml) … of RVFV-SA51” value [2] was 30000 ng/mL and the “Fold-Change ZH501/MP-12 (ratio of neutralization IC50s)” value [3] was 1 fold. The “IC50 (ng/ml) … of RVFV-ZH501” value [3] was 30000 ng/mL.

B4: RVFV-401 (antibody, V domains shown)
VH: QITFKESGPTLVKPTQTLTLTCTFSGFSLSTSGVGVGWIRQPPGKALEWLALLYWNDDKRYTPSLRSRLTITKDTSKNQVVLTMTDMDPVDTATYYCARKPRDDFLRLTMMGGGDYFDYWGQGTLVTVSS
VL: SYELTQPPSVSVSPGQTARITCSGDALPDQYAYWYQQKPGQAPVLVLYKDNERPSGIPERFSGSTSGTTVTLTISGVQAEDEADYYCQSADTSTAYHVIFGGGTKLTVL
In the case of B4, the “IC50 (ng/ml) … of RVFV-MP-12” value [1] is reported as 2120 ng/mL, the “IC50 (ng/ml) … of RVFV-SA51” value [2] is reported as 1110 ng/mL and the “Fold-Change ZH501/MP-12 (ratio of neutralization IC50s)” value [3] is reported as 0.2 fold. For the same binder, the “IC50 (ng/ml) … of RVFV-ZH501” value [3] was 370 ng/mL.

B5: RVFV-121 (antibody, V domains shown)
VH: QMQLQESGPGLVKPSGTLSLTCAVSGDSISTSTWWSWVRQSPGKGLEWIGEIYHSESTNYNPSLKSRVSLSLDKSKNQLSLRLSSVTAADTGVYYCARGSLVFDYWGQGAQVVVSS
VL: EIVMTQSPATLSVSPGERATLSCRASQSVSSNLAWYQQKPGQAPRLLIYAASTRATGIPARFSGSGSGTEFTLTISSLQSEDFAVYYCQQFNNWPRTFGQGTKVEIK
B5 was tested, and the “Fold-Change ZH501/MP-12 (ratio of neutralization IC50s)” value [4] was 31.7 fold, the “IC50 (ng/ml) … of RVFV-ZH501” value [4] was 1110 ng/mL and the “IC50 (ng/ml) … of RVFV-SA51” value [5] was 1110 ng/mL. The “IC50 (ng/ml) … of RVFV-MP-12” value [6] was 35 ng/mL.

B6: RVFV-249 (antibody, V domains shown)
VH: QVLLVQSEAEVRKPGASVKISCKTSGYTFTTYFMHWVRQAPGQGLEWVAIVDPSTGNTGYAQRFQGRVTVTRDTSTGTLFMELTSLTTEDTAMYYCGRDRGSRAVDSWGQGTLVTVFS
VL: QSVLTQPPSVSGAPGQRVTISCSGSSSNVGPNTVSWYQQLPGVAPKLLIYRNNQRPSGVPDRFSGSKFGTSASLVIGGLQSEDEADYYCAAWDDSLNGHMVFGGGTKVAVL
In the case of B6, the “Fold-Change ZH501/MP-12 (ratio of neutralization IC50s)” value [4] is reported as 4.4 fold, the “IC50 (ng/ml) … of RVFV-ZH501” value [4] is reported as 30000 ng/mL and the “IC50 (ng/ml) … of RVFV-SA51” value [5] is reported as 30000 ng/mL. For the same binder, the “IC50 (ng/ml) … of RVFV-MP-12” value [6] was 6790 ng/mL.

B7: RVFV-436 (antibody, V domains shown)
VH: QVQLHESGPGLVKPSETLSLTCGVSGYTISSDYYWGWIRQPPGKGLEWIGSIYQNGHTYYNPSLKSRVTISVDTSKNQFSLELSSVTAADTAVYYCARRGDCGADCYHFDYWGRGTAVTVSS
VL: SYEVTQPLSVSVSPGQTASITCSGEKLENKYVSWYQQKPGQSPVLVMYQDFKRPSGIPERFSGSNSGNTATLTISGTQAMDEADYYCQAWDRSTFYVFGTGTKVTVVG
B7 was tested, and the “IC50 (ng/ml) … of RVFV-MP-12” value [1] was 2.5 ng/mL, the “IC50 (ng/ml) … of RVFV-SA51” value [2] was 4.57 ng/mL and the “Fold-Change ZH501/MP-12 (ratio of neutralization IC50s)” value [3] was 1.8 fold. For the same binder, the “IC50 (ng/ml) … of RVFV-ZH501” value [3] was 4.57 ng/mL.

B8: RVFV-296 (antibody, V domains shown)
VH: QVQLVQSGSELKKSGASVKVSCRASGYTFTTYVMNWVRQAPGQGLEWMGWINTNTGNPTYAQGFTGRFVFSLDTSVSTAYLQINSLKAEDTAVYYCAREYNSFDYWGQGTLVTVSS
VL: QSVLTQPPSVSGAPGQRVTISCTGSSSNIGAGYDVHWYQQLPGTAPKLLIYDNNNRPSGVPDRFSGSRSGTSTSLAITGLQAEDEADYYCQSYDFRLSGSVFGGGTKVTVL
With B8 the “IC50 (ng/ml) … of RVFV-MP-12” value [1] was 638 ng/mL, the “IC50 (ng/ml) … of RVFV-SA51” value [2] was 120 ng/mL and the “Fold-Change ZH501/MP-12 (ratio of neutralization IC50s)” value [3] was 0.2 fold. For the same binder, the “IC50 (ng/ml) … of RVFV-ZH501” value [3] was 120 ng/mL.

B9: RVFV-429 (antibody, V domains shown)
VH: QVQLVQSGAEVKKPGSSVKVSCRASGGTFSSYTISWVRQAPGQGLEWMGGIIPILGLTKFAQKFQDRVTITADISATTTYMELSSLTSEDTAVYYCARNGEQLEWSYYYGMDVWGQGTTVTVSS
VL: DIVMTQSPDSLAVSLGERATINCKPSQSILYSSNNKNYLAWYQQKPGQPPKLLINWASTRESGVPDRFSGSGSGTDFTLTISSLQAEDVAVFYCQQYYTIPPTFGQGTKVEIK
In the case of B9, the “IC50 (ng/ml) … of RVFV-MP-12” value [1] is reported as 0.9 ng/mL, the “IC50 (ng/ml) … of RVFV-SA51” value [2] is reported as 4.57 ng/mL and the “Fold-Change ZH501/MP-12 (ratio of neutralization IC50s)” value [3] is reported as 5.1 fold. For the same binder, the “IC50 (ng/ml) … of RVFV-ZH501” value [3] was 4.57 ng/mL.

B10: RVFV-379 (antibody, V domains shown)
VH: QVQLQESGPGLVKPSQTLSLTCTVSGDSISGGDYYWSWIRRPAGEGLEWIGRVHTTGSTDYNPSLRTRVTISIDTSKNHFFLKMTSVTAADTAVYYCAREGDYSAWFDPWGQGALVTVSS
VL: DIQMTQSPSSLSASIGDRVTITCRASQHIESFLNWYQQKPGKAPKLLIYIASTLQGGVPSRFSGRGFGTDFTLTINSLQPEDFATYYCQQSYTISPITFGQGTRLEIK
B10 was tested, and the “IC50 (ng/ml) … of RVFV-MP-12” value [1] was 1.3 ng/mL, the “IC50 (ng/ml) … of RVFV-SA51” value [2] was 13 ng/mL and the “Fold-Change ZH501/MP-12 (ratio of neutralization IC50s)” value [3] was 3.5 fold. The “IC50 (ng/ml) … of RVFV-ZH501” value [3] was 4.57 ng/mL.

B11: RVFV-381 (antibody, V domains shown)
VH: QEQLVESGGGVVQPGRSLRLSCAASGFTLRGYGIYWVRQAPGKGLEWVAVISHDGKNESYTDSVKGRFSISRDKSKNTVFLQMNSLTTQDTSVYYCARWTEGSEEFYYHGLDVWGQGTTVTVSP
VL: SYELTQPPSVSVSPGQTARITCSGHLLPKQYAYWYQQKPGQAPTLVIYADYNRASGIPERFSGASSGTTVTLTITGVKAEDQADYYCQSIDNRFHYPMIFGGGTKLTVL
B11 was tested, and the “IC50 (ng/ml) … of RVFV-MP-12” value [1] was 4440 ng/mL, the “IC50 (ng/ml) … of RVFV-SA51” value [2] was 10000 ng/mL and the “Fold-Change ZH501/MP-12 (ratio of neutralization IC50s)” value [3] was 2.3 fold. The “IC50 (ng/ml) … of RVFV-ZH501” value [3] was 10000 ng/mL.

B12: RVFV-326 (antibody, V domains shown)
VH: EAQLVESGGGLVKPGGSLRLSCAASGFSFSYAWMSWVRRLPGKGLEWVGRIKGKADGETTDYAAPVKGRFTISRDDSKTTVYLQMNTLKIEDTGVYYCTTDIGDFYDSIGYSYTDYWGQGTLVTVSS
VL: EIVLTQSPATLSLSPGERATLSCRASQSVSSYLAWYQQKPGQAPRLLIYDASNRATGIPVRFSGSGSGTDFTLTISSLEPEDFALYYCQQRSDWPPTFGQGTKVEIK
B12 was tested, and the “Fold-Change ZH501/MP-12 (ratio of neutralization IC50s)” value [4] was 15.9 fold, the “IC50 (ng/ml) … of RVFV-ZH501” value [4] was 1110 ng/mL and the “IC50 (ng/ml) … of RVFV-SA51” value [5] was 370 ng/mL. The “IC50 (ng/ml) … of RVFV-MP-12” value [6] was 70 ng/mL.

B13: RVFV-426 (antibody, V domains shown)
VH: QVQLQESGPGLLKPSQTLSLTCGVSGDSITSTGDSWTWIRQPPGKGLEWIGYIYYSGSAYYNPSLKSRVTISVDTSKNQFSLRLRSVTAADTAVYYCARALEYGAGSWAAAFWGQGILVTVSS
VL: SYEVTQPPSVSVSPGQTASITCSGDKLVERYVSWYQQKPGQSPLLVIYHDIKRPSGIPERFSGSNSGNTATLTISGTQPMDEADYYCQAWDSSTVLFGGGTKLTVL
For B13, the “IC50 (ng/ml) … of RVFV-MP-12” value [1] was 9.1 ng/mL, the “IC50 (ng/ml) … of RVFV-SA51” value [2] was 120 ng/mL and the “Fold-Change ZH501/MP-12 (ratio of neutralization IC50s)” value [3] was 4.5 fold. For the same binder, the “IC50 (ng/ml) … of RVFV-ZH501” value [3] was 41 ng/mL.
